From patent publication US20240016892A1 (SHATTUCK LABS, published 2024)

Key:
[1] = target: T1, recombinant human HVEM-Fc (human, UniProt Q92956 39-202, limits assumed); assay: MSD sandwich 'Dual - Potency #2': capture HVEM-Fc, TIGIT-Fc-LIGHT titrated, detection PVR-Biotin
T1 construct: also called human recombinant HVEM (MSD plates); not shown: Fc of the bought fusion (Acro Biosystems); not described
T1 sequence (looked up): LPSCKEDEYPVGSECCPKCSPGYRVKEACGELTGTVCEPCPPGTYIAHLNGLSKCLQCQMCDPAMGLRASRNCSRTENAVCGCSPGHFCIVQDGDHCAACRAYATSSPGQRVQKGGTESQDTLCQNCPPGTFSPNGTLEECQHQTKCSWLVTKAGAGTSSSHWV
Method: (§1) For the TIGIT-Fc-LIGHT chimeric protein; MSD Multi-Array plates (MSD) were pre-coated overnight with recombinant human LTβR-Fc or HVEM-Fc (Acro Biosystems) at 4° C. The plates were blocked with Diluent 100 (MSD) for at least one hour at room temperature on a shaker. After washing, analysis samples were added and then serially diluted 3-fold and loaded in duplicate wells to generate 8-10 test concentrations. The bound the TIGIT-Fc-LIGHT chimeric protein was detected with recombinant biotinylated human PVR (Acro Biosystems). Streptavidin conjugated to ruthenium (MSD), was added to bind the biotin labeled detector. MSD Gold Reading buffer (MSD) was added to the plate, and upon application of an electrical charge, an electrochemiluminescent signal was produced and detected with the MSD MESO QuickPlex SQ 120MM, Model 1300, to generate relative light units (RLU). Analogous assays were performed using mTIGIT-Fc-LIGHT and murine recombinant PVR, HVEM, and […] (Acro Biosystems).
(§2) The binding of the TIGIT-Fc-LIGHT chimeric protein to its receptors was characterized by Meso Scale Discovery (MSD) ELISA assays. […] Binding of the chimeric protein to LTβR-Fc was detected using an PVR-Biotin and using an electrochemiluminescence (ECL) readout. […] Binding of the chimeric protein to HVEM-Fc was detected using an PVR-Biotin and using an electrochemiluminescence (ECL) readout. […]

[2] = target: T2, anti-human LIGHT-biotin antibody (MSD detection); assay: MSD sandwich 'Dual - Antibody': capture anti-TIGIT, TIGIT-Fc-LIGHT titrated, detection anti-LIGHT (same curve as the capture row)
T2 construct: also called anti-LIGHT antibody

[3] = target: T3, anti-human TIGIT antibody (MSD capture); assay: MSD sandwich 'Dual - Antibody': capture anti-TIGIT, TIGIT-Fc-LIGHT titrated, detection anti-LIGHT
T3 construct: also called anti-TIGIT antibody

[4] = target: T4, recombinant human CD112 (PVRL2) (human, UniProt Q92692 32-360); assay: BLI (Octet-Red96), tagged rhCD112 (PVRL2) immobilised on biosensor
T4 construct: also called rhCD112 (PVRL2); Nectin-2
T4 sequence (looked up): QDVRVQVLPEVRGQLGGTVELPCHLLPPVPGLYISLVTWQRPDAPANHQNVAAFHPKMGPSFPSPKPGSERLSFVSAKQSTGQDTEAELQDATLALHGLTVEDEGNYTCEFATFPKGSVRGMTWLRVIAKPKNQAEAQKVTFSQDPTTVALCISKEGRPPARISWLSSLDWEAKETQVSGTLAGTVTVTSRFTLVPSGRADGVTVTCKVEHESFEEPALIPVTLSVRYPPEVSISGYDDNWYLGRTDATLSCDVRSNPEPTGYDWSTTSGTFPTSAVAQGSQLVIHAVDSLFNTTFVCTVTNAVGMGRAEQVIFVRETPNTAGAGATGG
Method: (§3) Bio-Layer interferometry-based affinity testing was used to determine the on-rates (Ka), off-rates (Kd) and binding affinities (KD) of the TIGIT-Fc-LIGHT chimeric protein to intended binding targets, using histidine- or biotin-tagged versions of the human recombinant proteins (PVR, HVEM, LTβR, PVRL2, PVRL3, and Nectin-4; purchased from Acro Biosystems or Sino Biological). Commercially available or internally produced single-sided fusion protein controls (TIGIT-Fc and Fc-LIGHT) were also tested in parallel. Targets were immobilized at a concentration of 3 μg/mL in Kinetics buffer (PBS/0.1% Tween-20/1% BSA; pH7.0) to anti-pentaHis or streptavidin coated biosensors. Direct binding of fusion proteins to recombinant target proteins was performed on an Octet-Red96 BLI instrument, using association and dissociation times of 90 and 120 seconds, respectively.

[5] = target: T5, recombinant human CD113 (PVRL3) (human, UniProt Q9NQS3 58-404); assay: BLI (Octet-Red96), tagged rhCD113 (PVRL3) immobilised on biosensor
T5 construct: also called rhCD113 (PVRL3); Nectin-3
Method: as §3

recombinant human PVR = target: T6, recombinant human PVR (human, UniProt P15151 21-343); assay: MSD sandwich 'Dual - Potency #2': capture HVEM-Fc, TIGIT-Fc-LIGHT titrated, detection PVR-Biotin (same curve as the capture row)
T6 construct: The tagged PVR of the BLI assay and the biotinylated PVR used as detector in MSD are treated as one molecule; also called rhPVR; CD155
T6 sequence (looked up): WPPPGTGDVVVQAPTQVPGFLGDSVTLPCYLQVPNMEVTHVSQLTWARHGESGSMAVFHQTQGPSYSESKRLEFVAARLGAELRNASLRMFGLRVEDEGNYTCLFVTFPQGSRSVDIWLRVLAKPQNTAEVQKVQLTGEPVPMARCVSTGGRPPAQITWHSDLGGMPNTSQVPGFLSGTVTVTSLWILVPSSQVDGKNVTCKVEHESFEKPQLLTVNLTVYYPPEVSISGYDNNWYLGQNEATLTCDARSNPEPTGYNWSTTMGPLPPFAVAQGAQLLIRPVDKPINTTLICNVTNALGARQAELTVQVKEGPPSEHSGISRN
Method: as §1, §2

recombinant human HVEM = target: T7, recombinant human HVEM (human, UniProt Q92956 39-202); assay: BLI (Octet-Red96), tagged rhHVEM immobilised on biosensor
T7 construct: Construct limits and tag not specified; also called rhHVEM; TNFRSF14
T7 sequence (looked up): T1 sequence (looked up)
Method: as §3
Protein-protein interactions (PPI) between the fusion proteins and their cognate binding partners were characterized using both recombinant protein and cell-based methods. First, bio-layer interferometry-based affinity testing was used to assess the kinetics of receptor/ligand binding.

T5 sequence (Q9NQS3 58-404 limits assumed): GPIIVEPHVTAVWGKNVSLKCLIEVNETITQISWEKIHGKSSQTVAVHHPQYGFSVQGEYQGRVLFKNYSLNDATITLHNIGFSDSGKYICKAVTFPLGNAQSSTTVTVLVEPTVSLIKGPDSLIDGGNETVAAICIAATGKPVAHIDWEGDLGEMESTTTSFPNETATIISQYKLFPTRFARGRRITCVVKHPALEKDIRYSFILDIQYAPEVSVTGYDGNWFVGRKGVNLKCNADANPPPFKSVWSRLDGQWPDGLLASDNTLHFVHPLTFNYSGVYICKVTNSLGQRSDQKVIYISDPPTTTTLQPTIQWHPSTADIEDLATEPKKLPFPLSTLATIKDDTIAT

B1: human TIGIT-Fc-LIGHT chimeric protein (Fc fusion)
chain: MMTGTIETTGNISAEKGGSIILQCHLSSTTAQVTQVNWEQQDQLLAICNADLGWHISPSFKDRVAPGPGLGLTLQSLTVNDTGEYFCIYHTYPDGTYTGRIFLEVLESSVAEHGARFQIPSKYGPPCPPCPAPEFLGGPSVFLFPPKPKDQLMISRTPEVTCVVVDVSQEDPEVQFNWYVDGVEVHNAKTKPREEQFNSTYRVVSVLTVLHQDWLSGKEYKCKVSSKGLPSSIEKTISNATGQPREPQVYTLPPSQEEMTKNQVSLTCLVKGFYPSDIAVEWESNGQPENNYKTTPPVLDSDGSFFLYSRLTVDKSRWQEGNVFSCSVLHEALHNHYTQKSLSLSLGKIEGRMDLQLHWRLGEMVTRLPDGPAGSWEQLIQERRSHEVNPAAHLTGANSSLTGSGGPLLWETQLGLAFLRGLSYHDGALVVTKAGYYYIYSKVQLGGVGCPLGLASTITHGLYKRTPRYPEELELLVSQQSPCGRATSSSRVWWDSSFLGGVVHLEAGEKVVVRVLDERLVRLRDGTRSYFGAFMV
notes: Said to exist as a hexamer (dimer of trimers); Glycosylated; also called hTIGIT-Fc-LIGHT; TIGIT-Fc(IgG4)-LIGHT
[1]
  EC50: 86 nM
[2]
  EC50: 1.15 nM
[3]
  EC50: 1.15 nM
[4]
  Kd: 3 nM
  koff: 0.000471 s⁻¹
  kon: 172000 M⁻¹ s⁻¹
[5]
  koff: 0.00126 s⁻¹
  kon: 130000 M⁻¹ s⁻¹
Recombinant human PVR
  EC50: 86 nM
Recombinant human HVEM
  Kd: 6.49 nM
  koff: 0.000173 s⁻¹
  kon: 26100 M⁻¹ s⁻¹
